The text below walks through data of patent publication US20170010270A1 (Chugai, published 2017).

Experiment [1] addresses T1, GPC3 peptide, amino acid position 321-350 (SEQ ID NO: 17) (human).
T1 construct: synthetic 30-residue peptide of GPC3
T1 peptide: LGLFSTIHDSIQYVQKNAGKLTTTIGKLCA
The experiment can be described thus: ELISA on immobilised peptide, antibody at 2 µg/mL. The procedure:
In order to identify more detailed epitopes for the antibodies, the amino acid sequence of GPC3 was divided into peptides of 30 residues containing 10-residue overlaps, and the corresponding peptides were synthesized (SEQ ID NOs: 1 to 29 in Table 2). Each peptide thus synthesized was dissolved at a concentration of 1 mg/mL in dimethyl sulfoxide and then diluted to 1 μg/mL with PBS. The diluted peptide solution was added at 70 μL/well to a 96-well plate and immobilized thereon at room temperature for 1 hour. After removal of unimmobilized peptides, 20% Blocking-one (Nacalai Tesque, Inc.) was added thereto as a blocking buffer solution at 200 μL/well, and the plate was blocked overnight. After removal of the blocking buffer solution, each well was washed with TBS-T three times, and each antibody diluted to 2 μg/mL with a blocking buffer was then added thereto at 70 μL/well. One hour later, the antibody was removed, and each well was washed three times by the addition of TBS-T at 200 μL/well. An HRP-bound anti-mouse antibody was added at 70 μL/well to each well and reacted therewith for 1 hour. […] The reaction was terminated by the addition of 1% SDS at 70 μL/well, and the absorbance at 405 nm was measured using a plate reader.
On the technique in general: In an ELISA, binding on a coated surface is turned into a signal by an enzyme label.

The target of experiment [2] is T2, AW3, C-terminally His-tagged recombinant product of positions 1 to 218 of GPC3 (human, UniProt P51654 25-218).
T2 construct: Expressed in CHO cells; cell pellets used in reducing Western blot; Construct is stated from position 1; not shown: C-terminal His tag
Nature of the experiment: Western blot of CHO cell pellets, reducing. (In western blotting, separated proteins are transferred to a membrane and probed.)

For experiment [3], the target named is T3, AW2, C-terminally His-tagged recombinant product of positions 1 to 196 of GPC3 (human, UniProt P51654 25-196).
T3 construct: Expressed in CHO cells; cell pellets used in reducing Western blot; Construct is stated from position 1; also called AW2 (1-196); not shown: C-terminal His tag
Nature of the experiment: Western blot of CHO cell pellets, reducing.

T3 sequence (P51654 25-196): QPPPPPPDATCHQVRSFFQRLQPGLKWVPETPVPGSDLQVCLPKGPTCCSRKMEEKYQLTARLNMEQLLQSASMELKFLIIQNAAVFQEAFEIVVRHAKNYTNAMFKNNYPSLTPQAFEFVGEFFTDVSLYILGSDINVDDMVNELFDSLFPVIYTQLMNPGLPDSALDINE
T2 sequence (P51654 25-218): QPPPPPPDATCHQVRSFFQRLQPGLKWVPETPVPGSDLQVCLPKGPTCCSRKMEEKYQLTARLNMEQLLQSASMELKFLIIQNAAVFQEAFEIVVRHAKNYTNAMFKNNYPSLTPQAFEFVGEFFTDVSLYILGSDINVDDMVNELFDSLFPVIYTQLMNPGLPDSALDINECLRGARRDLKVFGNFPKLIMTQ

B1: GT30 antibody (antibody, V domains shown)
VH: QVQLQQSGAELARPGASVKLSCRASGYTFTSYGISWMMQRTGQGLEWIGEIYPRSGITYYNEKFKGKATLTADKSSSTAYMQLSSLTSEDSAVYFCARDVSDGYLFPYWGQGTLVTVSA
VL: DIQMTQSPASLSASVGETVTITCRTSENIYSYLAWYQQKQGKSPQLLVYNAKTLPEGVPSRFSGSGSGTQFSLKINSLQPEDFGSYYCQHHYGTPPTFGGGTKLEIKR
On to B1, for which the binding result in experiment [1] is recorded as “binds”; in experiment [2] it was “no binding”; in experiment [3], “no binding”.
